A short description of the data set: soluble on expression in E. coli; label from the status in PepcDB or PDB records.
Take “MSLNPKILEKWMAEGQVTLPQVLVKNYATIGLNEVELVLLLQIQSFAAEAEFFPSMEMLTNRTTLPLEETIKTMDSLLKKGVIAIEQSQDNSRMISEQYNLAPLWGKLVALYENKEADSKHEKELEKQTSLYTLFEAEFGRPLSPMEAEMLSAWVEQDRTSPDLIKEALKEAVISQKLNFRYIDRILLNWSKQGVKTIEDAKRVAEEFHQNGRTSQAINQTEVKKSAGSIPLYDWLEKRKGEGHHHHHH”: the “soluble on expression in E. coli” value is listed as “soluble”. Take “MSLNPNYLDFEQPIADLEAKIQELHTASMGPSINVDTEVRALENKLRLRTAQIFRNLSAWQISQLARHPRRPYTLDYISVVCDEFQELAGDRALADDKAIVGGLARIGHRPVMLIGHQKGRDNKERLMRNFGMPKPEGYRKALRLMKLAERFGLPLLTFIDTMGAWPGIDAEERNQSEAIATNLIEMAELKIPVICTVIGEGGSGGALAIGIGDRTLMLEYSTYSVITPEGCASILWKDAAKASDAAEQLNLTARRLKEFGLIDKVIREPIGGAHRNPQQMANRLKAVLLNELEALDKVPLVTLLNQRHKRLRTYGAYENHEGHHHHHH”: the “soluble on expression in E. coli” value is given as “not soluble”. Consider “MSLNSAAQAQSSDPVVIGCPAPLTGIVAADGIEFQRGIQMAADEINAVGGILGRPIELVFADTQSKGVDVVIQSAQRLIDRDNASALIAGYNLENGTALHDVAADAGVIAMHANTVAVHDEMVKSDPDRYWGTFQYDPPETLYGGGFLKFLKDIEDNGEFSRPNNKIAIITGPGIYSVNIANAIRDGAGEYGYDVSLFETVAIPVSDWGPTLAKLRADPPAVIVVTHFYPQDQALFMNQFMTDPTNSLVYLQYGASLAAFRDIAGDNSVGVTYATVLGTLQDEMGDAFAKAYKERYGDLSSTASGCQTYSALYAYSIAAALAGGPGAPYDDVQNKAVADRLRSLIFRGPVGTMRFHADTQSAWSYPTETNDPSLGMPHIFSQIFDKAEDGVLIAPAPYKKAGFKMPPWMKGEGHHHHHH”, for which the “soluble on expression in E. coli” value is reported as “soluble”. As for “MSLNSLKHPKVRDTRDMWDIREELTSEQKKQEKLLAEINKYDKFVNSYSQTKEMTKETALNNTLQSLKKTAGMTDITGSGIVITISPLFSESLTGEPIENPPPDLLKKLINELNSYGAEHISINERRVVNHTVIRDINGTTKIDGYALDDYPLTVKVLAKDPDMLHSRVKGSGLEDLFASENLALKAGKSESKLTLKAYDRPLDVQQLKLLKDEGHHHHHH”, the “soluble on expression in E. coli” value is “soluble”. “MSLNTAMAINKPKKVNKVMNYKSCFDIIGPIMIGPSSSHTAGALAIGLAARKLFGGTPEKIVIKYYESFADTHKGHGTDFAIIGGILGLAADDANVTQSIELAEEQGIEIQFLEMSEESPVKHANTACVTLSDATHEIHLTGISVGGGTIEVKYIELDGFNVQLHGPLPILLVINQEEQAMQAFKDTLQKNNIQVNAVSRYVEGNQILFIFDLDSAPISSVKEQLFSLDDTSKIILLEGGSHHHHHH”: the “soluble on expression in E. coli” value is reported as “soluble”. In the case of “MSLNVLIIGAGAVGLCLAAKLSNVADVFAVTRERNAKIIRESGFKMTGIWGEGTFNFEASENVPERDFDYIIISSKGLATKSICEQFKDVINGKNVISMQNGVGNEEIILRYTDKVIGGTIITGFEWKGDAKVHVSVEGGPMTVGRFPNGTDKEVTDFVKLIKSSGIPVNETENIQGAIWSKTIYNCALNPLGAVMNVPYGELSNEHSWNIIKNIVSEIFEITSKKGVILPWKTSEEYLKYLKEFQLPNTAAHHSSMLQDISKGNITEIDFLNGAVVTIAKEFGIKTPYNKFITEQIKFLENLKSKKEGHHHHHH”, the “soluble on expression in E. coli” value is “soluble”.

As for “MSLNVLIVDDEANIRKTLTVFMESRGHRVKAVSNSRDACAEAEQQVFDLAFVDIRLGIESGLDLERSLLNACPWIKIVIITAYASIETAVEAMKRGASDYLAKPFTPDQLESITARLAEVCAMEMRIASLQEDLNRMHPEVYFTSRYPSMQRAIELSRQVALSDALVLLRGPSGTGKTVLARSIHNWSQRKEEPFGVVSCPSLSTELLESELFGHVKGSFPGAVRDKPGRVTLCEGGSLFLDEIGDLPLSIQAKLLRFIQDREYERIGDHQTRKADVRIIAATNTNLDLAVREGEFREDLFYRLNGIQIDLPTLAERPNDVEQLALNMLQFFAAQNLKNFDGFTEEARTALRTYSWPGNIRELRNVMERAVILGKNGQIGIELLPDSIVAKTHPVTEGHHHHHH”, the “soluble on expression in E. coli” value is “soluble”.

The values above are taken from the DeepSol protein solubility set.
